Consider 1 molecule from US20170035878A1 (ALBANY MEDICAL COLLEGE, published 2017).

In assay [1] the target is T1, human FcγRI on hFcγRI-expressing U937 cells (human, UniProt P12314 16-374).
T1 construct: whole, on cells; also called hFcγRI on U937 cells
Put plainly: flow cytometry on U937 cells, NSO supernatant, in the presence of human IgG, Rb anti-PspA or Rb anti-HSA detection. For orientation: Flow cytometry measures light scatter and fluorescence of single cells or particles in a stream.

Assay [2] deals with T2, human FcγRI (hFcγRI), coated on ELISA wells (human, UniProt P12314 16-288).
T2 construct: also called CD64
Put plainly: ELISA, hFcγRI-coated wells, NSO supernatant, Rb anti-PspA or Rb anti-HSA detection. In general terms: In an ELISA, binding on a coated surface is turned into a signal by an enzyme label.

T2 sequence (P12314 16-288 limits assumed): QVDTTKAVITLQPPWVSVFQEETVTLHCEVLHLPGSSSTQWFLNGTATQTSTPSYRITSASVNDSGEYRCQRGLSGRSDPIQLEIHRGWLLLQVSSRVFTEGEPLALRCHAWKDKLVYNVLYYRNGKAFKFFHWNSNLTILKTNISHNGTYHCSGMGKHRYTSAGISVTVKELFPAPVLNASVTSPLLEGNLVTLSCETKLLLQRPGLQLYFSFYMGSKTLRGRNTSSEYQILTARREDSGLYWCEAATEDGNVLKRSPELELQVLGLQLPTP
T1 sequence (P12314 16-374): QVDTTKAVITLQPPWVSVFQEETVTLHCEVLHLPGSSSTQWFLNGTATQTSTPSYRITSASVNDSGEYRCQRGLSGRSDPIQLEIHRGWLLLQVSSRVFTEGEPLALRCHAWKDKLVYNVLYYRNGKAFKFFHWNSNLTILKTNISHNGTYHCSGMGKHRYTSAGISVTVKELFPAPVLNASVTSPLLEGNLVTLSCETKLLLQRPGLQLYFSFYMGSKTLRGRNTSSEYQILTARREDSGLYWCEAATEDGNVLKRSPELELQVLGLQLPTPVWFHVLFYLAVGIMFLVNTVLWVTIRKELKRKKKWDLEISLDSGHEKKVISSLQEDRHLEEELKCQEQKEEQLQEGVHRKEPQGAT

B1: trivalent anti-hFcγRI-PspA fusion protein (other)
chain: DIQLTQSPSSLSASVGDRVTITCKSSQSVLYSSNQKNYLAWYQQKPGKAPKLLIYWASTRESGVPSRFSGSGSGTDFTFTISSLQPEDIATYYCHQYLSSWTFGQGTKVEIKSSGGGGSGGGGSGGGGSEVQLVESGGGVVQPGRSLRLSCSSSGFIFSDNYMYWVRQAPGKGLEWVATISDGGSYTYYPDSVKGRFTISRDNSKNTLFLQMDSLRPEDTGVYFCARGYYRYEGAMDYWGQGTPVTVSSGSTGGGGSTSAGGGGSSDIQLTQSPSSLSASVGDRVTITCKSSQSVLYSSNQKNYLAWYQQKPGKAPKLLIYWASTRESGVPSRFSGSGSGTDFTFTISSLQPEDIATYYCHQYLSSWTFGQGTKVEIKSSGGGGSGGGGSGGGGSEVQLVESGGGVVQPGRSLRLSCSSSGFIFSDNYMYWVRQAPGKGLEWVATISDGGSYTYYPDSVKGRFTISRDNSKNTLFLQMDSLRPEDTGVYFCARGYYRYEGAMDYWGQGTPVTVSSGSTGGGGSTASGGGGSSDIQLTQSPSSLSASVGDRVTITCKSSQSVLYSSNQKNYLAWYQQKPGKAPKLLIYWASTRESGVPSRFSGSGSGTDFTFTISSLQPEDIATYYCHQYLSSWTFGQGTKVEIKSSGGGGSGGGGSGGGGSEVQLVESGGGVVQPGRSLRLSCSSSGFIFSDNYMYWVRQAPGKGLEWVATISDGGSYTYYPDSVKGRFTISRDNSKNTLFLQMDSLRPEDTGVYFCARGYYRYEGAMDYWGQGTPVTVSSGSTGGGGSTEFMEESPVASQSKAEKDYDAAKKDAKNAKKAVEDAQKALDDAKAAQKKYDEDQKKTEEKAALEKAASEEMDKAVAAVQQAYLAYQQATDKAAKDAADKMIDEAKKREEEAKTKFNTVRAMVVPEPEQLAETKKKSEEAKQKAPELTKKLEEAKAKLEEAEKKATEAKQKVDAEEVAPQAKIAELENQVHRLEQELKEIDESESEDYAKEGFRAPLQSKLDAKKAKLSKLEELSDKIDELDAEIAKLEDQLKAAEENNNVEDYFKEGLEKTIAAKKAELEKTEADLKKAVNEPEKPAPAPETPAPELEHHHHHH
notes: Single-chain fusion: three humanized 22 (H22) anti-human FcγRI VL-VH scFv units, then PspA (S. pneumoniae strain Rx1) and a His tag; Tested as unpurified supernatant of transfected NSO cells; also called Trivalent Anti-FcγRI-PspA; Construct B
As to B1, the binding result in assay [1] and in assay [2] was “binds” throughout.
